From the RNAGym collection of RNA variant scans (doi:10.7554/elife.80360)

B1: CPEB3 Ribozyme (parent)
chain: GGGGGCCACAGCAGAAGCGUUCACGUCGCGGCCCCUGUCAGAUUCUGGUGAAUCUGCGAAUUCUGCUGU

Variants of: B1
Assay: self-cleavage, relative activity (ratio to wild type); higher = more cleavage; co-transcriptional

First: GGGGGCCACAGCAGAAGCGUUCACGUCGCGGCCCCUGUUAGAUUCUGCUGAAUCUGCGAAUUCUGCUGU [C39U G48C]
Second: GGGGGCCACAGCAGAAGCGUUCACGUCGCGGCCCCUGUUACAUUCUGGUGAAUCUGCGAAUUCUGCUGU [C39U G41C]
The self-cleavage of the first is higher: 0.939 for the first, 0.445 for the second.

Going from GGGGGCCACAGCAGAAGCGUUCACGUCGCGGCCCCUGUUAGAUUCUGGUGAAACUGCGAAUUCUGCUGU [C39U U53A] to GGGGGCCACAGCAGAAGCGUUCACGUCGCGGCCCCUGUCCGAUUCUGGUGAAUCUGCGAGUUCUGCUGU [A40C A60G], the self-cleavage falls from 0.582 to 0.225.

Going from GGGGGCCACAGCAGAAGCGUUCACGUCGCGGCCCCUGUCCGAUUCUGGUGAAUCUGCGACUUCUGCUGU [A40C A60C] to GGGGGCCACAGCAGAAGCGUUCACGUCGCGGCCCCUGUUAGAGUCUGGUGAAUCUGCGAAUUCUGCUGU [C39U U43G], the self-cleavage rises from 0.34 to 0.405.

Going from GGGGGCCACAGCAGAAGCGUUCACGUCGCGGCCCCUGUUAGAAUCUGGUGAAUCUGCGAAUUCUGCUGU [C39U U43A] to GGGGGCCACAGCAGAAGCGUUCACGUCGCGGCCCCUGUUAGAUUCUGGCGAAUCUGCGAAUUCUGCUGU [C39U U49C], the self-cleavage rises from 0.49 to 0.927.

First: GGGGGCCACAGCAGAAGCGUUCACGUCGCGGCCCCUGUCCGAUUCUGGUGAAUCUGCGAAUUCUUCUGU [A40C G65U]
Second: GGGGGCCACAGCAGAAGCGUUCACGUCGCGGCCCCUGUUAGAUUCUGGUGAAUCCGCGAAUUCUGCUGU [C39U U55C]
The self-cleavage of the first is lower: 0.354 for the first, 0.752 for the second.

Compared with GGGGGCCACAGCAGAAGCGUUCACGUCGCGGCCCCUGUUAGAUUCUGGUGAAUCAGCGAAUUCUGCUGU [C39U U55A], GGGGGCCACAGCAGAAGCGUUCACGUCGCGGCCCCUGUUAGAUUCUGGUGAAUCUUCGAAUUCUGCUGU [C39U G56U] is higher in self-cleavage: 0.752 for the first, 0.922 for the second.

First: GGGGGCCACAGCAGAAGCGUUCACGUCGCGGCCCCUGUCCGAUUCUGGUGAAUGUGCGAAUUCUGCUGU [A40C C54G]
Second: GGGGGCCACAGCAGAAGCGUUCACGUCGCGGCCCCUGUCCGAUUCUGGUGAAUCUGCGUAUUCUGCUGU [A40C A59U]
The self-cleavage of the first is lower: 0.323 for the first, 0.381 for the second.

Compared with GGGGGCCACAGCAGAAGCGUUCACGUCGCGGCCCCUGUUAGAUUCUAGUGAAUCUGCGAAUUCUGCUGU [C39U G47A], GGGGGCCACAGCAGAAGCGUUCACGUCGCGGCCCCUGUUAGAUUCUUGUGAAUCUGCGAAUUCUGCUGU [C39U G47U] is higher in self-cleavage: 0.948 for the first, 0.973 for the second.

First: GGGGGCCACAGCAGAAGCGUUCACGUCGCGGCCCCUGUCCGAUUCUGGUGAAUCUGCGAAUUCUGCUGU [A40C]
Second: GGGGGCCACAGCAGAAGCGUUCACGUCGCGGCCCCUGUUAGAUUCUGGUGAAUCUGCGAAUUCUGCUAU [C39U G68A]
The self-cleavage of the first is lower: 0.702 for the first, 0.99 for the second.

Going from GGGGGCCACAGCAGAAGCGUUCACGUCGCGGCCCCUGUCCGAUUCUGGUGAAUCUGUGAAUUCUGCUGU [A40C C57U] to GGGGGCCACAGCAGAAGCGUUCACGUCGCGGCCCCUGUUAGAUUCUGGUGAAUCUGCGAAUUCUGCUGA [C39U U69A], the self-cleavage rises from 0.287 to 0.94.

First: GGGGGCCACAGCAGAAGCGUUCACGUCGCGGCCCCUGUUAGAUUCUGGUGAAUCUGCGAAUUCUGCUGG [C39U U69G]
Second: GGGGGCCACAGCAGAAGCGUUCACGUCGCGGCCCCUGUUAGAUUCUGGUGAAUCUGCGAAUUCUCCUGU [C39U G65C]
The self-cleavage of the first is higher: 1.05 for the first, 0.438 for the second.

First: GGGGGCCACAGCAGAAGCGUUCACGUCGCGGCCCCUGUUAGAUUCUGGUAAAUCUGCGAAUUCUGCUGU [C39U G50A]
Second: GGGGGCCACAGCAGAAGCGUUCACGUCGCGGCCCCUGUCCUAUUCUGGUGAAUCUGCGAAUUCUGCUGU [A40C G41U]
The self-cleavage of the first is higher: 0.91 for the first, 0.22 for the second.

Compared with GGGGGCCACAGCAGAAGCGUUCACGUCGCGGCCCCUGUCCGAUUCUGGUGAAUCUGCAAAUUCUGCUGU [A40C G58A], GGGGGCCACAGCAGAAGCGUUCACGUCGCGGCCCCUGUCCGAUUCUGGUGAAUCUGCGAAUUAUGCUGU [A40C C63A] is lower in self-cleavage: 0.659 for the first, 0.321 for the second.

Compared with GGGGGCCACAGCAGAAGCGUUCACGUCGCGGCCCCUGUCCGAUUCUGGUAAAUCUGCGAAUUCUGCUGU [A40C G50A], GGGGGCCACAGCAGAAGCGUUCACGUCGCGGCCCCUGUCCGAUUCUGGUCAAUCUGCGAAUUCUGCUGU [A40C G50C] is higher in self-cleavage: 0.423 for the first, 0.424 for the second.

First: GGGGGCCACAGCAGAAGCGUUCACGUCGCGGCCCCUGUCCGAUUCUGCUGAAUCUGCGAAUUCUGCUGU [A40C G48C]
Second: GGGGGCCACAGCAGAAGCGUUCACGUCGCGGCCCCUGUCCGAUUCUGAUGAAUCUGCGAAUUCUGCUGU [A40C G48A]
The self-cleavage of the first is lower: 0.716 for the first, 0.882 for the second.

Compared with GGGGGCCACAGCAGAAGCGUUCACGUCGCGGCCCCUGUCCGAUUCUCGUGAAUCUGCGAAUUCUGCUGU [A40C G47C], GGGGGCCACAGCAGAAGCGUUCACGUCGCGGCCCCUGUUAGAUUCUGGUGAAUCUGCGAAGUCUGCUGU [C39U U61G] is lower in self-cleavage: 0.794 for the first, 0.577 for the second.

First: GGGGGCCACAGCAGAAGCGUUCACGUCGCGGCCCCUGUCCGAUUCUGGUGAUUCUGCGAAUUCUGCUGU [A40C A52U]
Second: GGGGGCCACAGCAGAAGCGUUCACGUCGCGGCCCCUGUCCGAUUCUGGUGACUCUGCGAAUUCUGCUGU [A40C A52C]
The self-cleavage of the first is higher: 0.365 for the first, 0.347 for the second.

Going from GGGGGCCACAGCAGAAGCGUUCACGUCGCGGCCCCUGUUAGAUUCUGGUGAAUCUGCGAAUUCAGCUGU [C39U U64A] to GGGGGCCACAGCAGAAGCGUUCACGUCGCGGCCCCUGUCCGAUUCUGGUGCAUCUGCGAAUUCUGCUGU [A40C A51C], the self-cleavage falls from 0.616 to 0.359.

Compared with GGGGGCCACAGCAGAAGCGUUCACGUCGCGGCCCCUGUUAGAUUCAGGUGAAUCUGCGAAUUCUGCUGU [C39U U46A], GGGGGCCACAGCAGAAGCGUUCACGUCGCGGCCCCUGUUAGAUGCUGGUGAAUCUGCGAAUUCUGCUGU [C39U U44G] is lower in self-cleavage: 0.934 for the first, 0.693 for the second.

In the case of GGGGGCCACAGCAGAAGCGUUCACGUCGCGGCCCCUGUUAGAUCCUGGUGAAUCUGCGAAUUCUGCUGU [C39U U44C], the self-cleavage is reported as 0.514.
